Measured values: IntAct's records for PubMed 17462627

B1: Emerin (Homo sapiens), P50402 (parent)
chain: MDNYADLSDTELTTLLRRYNIPHGPVVGSTRRLYEKKIFEYETQRRRLSPPSSSAASSYSFSDLNSTRGDADMYDLPKKEDALLYQSKGYNDDYYEESYFTTRTYGEPESAGPSRAVRQSVTSFPDADAFHHQVHDDDLLSSSEEECKDRERPMYGRDSAYQSITHYRPVSASRSSLDLSYYPTSSSTSFMSSSSSSSSWLTRRAIRPENRAPGAGLGQDRQVPLWGQLLLFLVFVIVLFFIYHFMQAEEGNPF

Legend:
SYNE1, Q8NF91-3 = variants of: B1; conditions: with SYNE1, Q8NF91-3
SYNE2, Q8WXH0-3 = variants of: B1; conditions: with SYNE2, Q8WXH0-3
Chain of SYNE2, Q8WXH0-3 (Q8WXH0 6031-6885): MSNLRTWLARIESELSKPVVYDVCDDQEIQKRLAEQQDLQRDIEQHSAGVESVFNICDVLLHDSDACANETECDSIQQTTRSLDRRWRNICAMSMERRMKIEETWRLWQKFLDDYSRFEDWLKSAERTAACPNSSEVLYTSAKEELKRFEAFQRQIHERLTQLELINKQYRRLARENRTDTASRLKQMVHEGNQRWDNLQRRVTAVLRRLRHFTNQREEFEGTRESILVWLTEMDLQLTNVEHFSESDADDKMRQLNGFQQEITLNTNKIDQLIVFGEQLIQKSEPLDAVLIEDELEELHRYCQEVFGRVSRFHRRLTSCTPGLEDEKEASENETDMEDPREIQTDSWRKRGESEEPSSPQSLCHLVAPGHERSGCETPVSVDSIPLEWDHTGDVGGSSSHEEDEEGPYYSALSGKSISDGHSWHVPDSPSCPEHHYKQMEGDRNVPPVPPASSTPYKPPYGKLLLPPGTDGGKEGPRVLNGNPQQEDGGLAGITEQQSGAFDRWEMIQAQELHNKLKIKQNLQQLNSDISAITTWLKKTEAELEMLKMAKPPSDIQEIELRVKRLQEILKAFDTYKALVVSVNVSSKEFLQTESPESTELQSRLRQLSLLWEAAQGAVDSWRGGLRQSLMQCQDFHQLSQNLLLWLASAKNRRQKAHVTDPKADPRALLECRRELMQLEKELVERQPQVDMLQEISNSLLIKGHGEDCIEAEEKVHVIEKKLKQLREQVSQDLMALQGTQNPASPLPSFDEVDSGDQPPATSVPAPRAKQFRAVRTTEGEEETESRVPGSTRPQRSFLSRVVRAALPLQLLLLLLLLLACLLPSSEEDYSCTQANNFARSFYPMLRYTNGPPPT

Chain of SYNE1, Q8NF91-3 (Q8NF91 other isoform, or with tags, fused parts or gaps): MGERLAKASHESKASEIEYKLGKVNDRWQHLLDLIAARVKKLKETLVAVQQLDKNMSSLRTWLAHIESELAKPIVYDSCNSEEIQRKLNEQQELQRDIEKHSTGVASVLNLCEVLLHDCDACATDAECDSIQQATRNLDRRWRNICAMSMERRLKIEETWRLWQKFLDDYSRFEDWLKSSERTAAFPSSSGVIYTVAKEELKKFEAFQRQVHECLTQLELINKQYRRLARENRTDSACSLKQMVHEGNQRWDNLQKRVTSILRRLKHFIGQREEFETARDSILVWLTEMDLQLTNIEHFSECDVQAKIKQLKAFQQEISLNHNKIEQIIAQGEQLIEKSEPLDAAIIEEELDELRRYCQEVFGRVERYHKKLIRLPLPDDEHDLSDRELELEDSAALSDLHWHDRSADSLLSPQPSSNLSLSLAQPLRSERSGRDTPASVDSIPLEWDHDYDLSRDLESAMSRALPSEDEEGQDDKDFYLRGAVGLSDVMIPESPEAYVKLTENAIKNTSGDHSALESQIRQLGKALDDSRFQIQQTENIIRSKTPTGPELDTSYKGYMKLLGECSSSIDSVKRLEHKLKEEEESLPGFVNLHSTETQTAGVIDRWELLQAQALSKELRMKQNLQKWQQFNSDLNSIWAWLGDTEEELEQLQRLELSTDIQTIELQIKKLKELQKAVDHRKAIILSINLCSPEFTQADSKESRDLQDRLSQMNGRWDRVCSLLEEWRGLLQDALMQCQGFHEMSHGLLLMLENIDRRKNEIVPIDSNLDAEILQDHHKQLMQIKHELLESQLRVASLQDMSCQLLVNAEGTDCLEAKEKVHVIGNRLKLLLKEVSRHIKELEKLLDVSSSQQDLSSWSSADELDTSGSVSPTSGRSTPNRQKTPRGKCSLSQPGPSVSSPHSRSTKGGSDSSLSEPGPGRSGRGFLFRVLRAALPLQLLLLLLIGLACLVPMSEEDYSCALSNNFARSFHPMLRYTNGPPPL

effect of a mutation on the interaction (SYNE1, Q8NF91-3)	effect of a mutation on the interaction (SYNE2, Q8WXH0-3)	Variant
increasing interaction strength		Q133H
decreasing interaction strength	increasing interaction strength	P183T
increasing interaction strength	increasing interaction strength	P183H
